Reference: the supplement of paper PMC9112550, “Optimization of the antimicrobial peptide Bac7 by deep mutational scanning” (BMC Biology, 2022)

Test system: Escherichia coli TOP10
Assay: shrunken log2 fold change of peptide-encoding DNA abundance (4.5 h post-induction vs induction); higher = less antimicrobial activity (less host growth inhibition)
Conditions: time post-induction: 4.5 h; library: site-saturation at positions 5, 18, 19, 20
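Note: peptides expressed intracellularly from a pBAD plasmid library in pooled LB shake-flask culture, induced with 0.3% L-arabinose, DNA abundance read by NGS, three biological replicates, DESeq2 with apeglm shrinkage.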

Sequence	shrunken log2 fold change
RRIRPRPPRLPRPRPRPMSRPRP	-0.0311
RRIRHRPPRLPRPRPRPYKTPRP	-0.00968
RRIRYRPPRLPRPRPRPGLRPRP	0.0396
RRIRPRPPRLPRPRPRPFEVPRP	0.0802
RRIRKRPPRLPRPRPRPERYPRP	-0.0119
RRIRGRPPRLPRPRPRPGIFPRP	0.254
RRIRARPPRLPRPRPRPGVHPRP	0.243
RRIRPRPPRLPRPRPRPCMKPRP	-0.0472
RRIRSRPPRLPRPRPRPVLYPRP	1.03
RRIRQRPPRLPRPRPRPPISPRP	-0.187
RRIRIRPPRLPRPRPRPNPHPRP	-0.581
RRIRQRPPRLPRPRPRPHDAPRP	-0.0149
RRIRGRPPRLPRPRPRPETTPRP	2.32
RRIRVRPPRLPRPRPRPREEPRP	0.493
RRIRMRPPRLPRPRPRPIPWPRP	-0.033
RRIRIRPPRLPRPRPRPWANPRP	-0.0688
RRIRSRPPRLPRPRPRPFAAPRP	0.355
RRIRQRPPRLPRPRPRPIPTPRP	-0.0272
RRIRKRPPRLPRPRPRPRLHPRP	0.312
RRIRYRPPRLPRPRPRPMKMPRP	-0.528
RRIRLRPPRLPRPRPRPHASPRP	-0.046
RRIRHRPPRLPRPRPRPTRYPRP	-0.453
RRIRWRPPRLPRPRPRPAWRPRP	0.642
RRIRVRPPRLPRPRPRPIFDPRP	-0.0222
RRIRERPPRLPRPRPRPFQVPRP	-0.212

Sequence	shrunken log2 fold change
RRIRDRPPRLPRPRPRPKVGPRP	-0.017
RRIRMRPPRLPRPRPRPFQPPRP	0.0604
RRIRKRPPRLPRPRPRPCSMPRP	-0.00483
RRIRVRPPRLPRPRPRPCKKPRP	-0.433
RRIRPRPPRLPRPRPRPIYQPRP	-0.35
RRIRTRPPRLPRPRPRPNSYPRP	-0.188
RRIRERPPRLPRPRPRPHKMPRP	-0.701
RRIRCRPPRLPRPRPRPFWKPRP	-0.271
RRIRLRPPRLPRPRPRPMHTPRP	0.25
RRIRMRPPRLPRPRPRPRDIPRP	-0.0288
RRIRWRPPRLPRPRPRPKLSPRP	-0.0389
RRIRFRPPRLPRPRPRPMKKPRP	-0.0398
RRIRLRPPRLPRPRPRPITHPRP	-0.24
RRIRERPPRLPRPRPRPEHKPRP	-0.0265
RRIRVRPPRLPRPRPRPYICPRP	-0.468
RRIRMRPPRLPRPRPRPIPYPRP	0.013
RRIRWRPPRLPRPRPRPHGTPRP	-0.137
RRIRTRPPRLPRPRPRPECSPRP	0.0479
RRIRHRPPRLPRPRPRPCAMPRP	-0.257
RRIRKRPPRLPRPRPRPIPMPRP	0.0472
RRIRNRPPRLPRPRPRPMVCPRP	-0.018
RRIRNRPPRLPRPRPRPDYVPRP	-0.296
RRIRERPPRLPRPRPRPTMWPRP	-0.421
RRIRCRPPRLPRPRPRPLNKPRP	-0.695
RRIRQRPPRLPRPRPRPTRLPRP	0.723

Sequence	shrunken log2 fold change
RRIRWRPPRLPRPRPRPEYSPRP	0.0675
RRIRCRPPRLPRPRPRPNMPPRP	-0.627
RRIRNRPPRLPRPRPRPVPIPRP	-0.0984
RRIRFRPPRLPRPRPRPARMPRP	0.296
RRIRQRPPRLPRPRPRPGKPPRP	0.12
RRIRDRPPRLPRPRPRPYLWPRP	-0.0398
RRIRVRPPRLPRPRPRPLCPPRP	-0.153
RRIRGRPPRLPRPRPRPVTIPRP	0.0068
RRIRWRPPRLPRPRPRPNFGPRP	0.174
RRIRQRPPRLPRPRPRPGHMPRP	0.0335
RRIRKRPPRLPRPRPRPSFWPRP	0.299
RRIRPRPPRLPRPRPRPSWEPRP	0.245
RRIRQRPPRLPRPRPRPYEEPRP	-0.434
RRIRNRPPRLPRPRPRPMNWPRP	0.127
RRIRERPPRLPRPRPRPCFFPRP	-0.331
RRIRIRPPRLPRPRPRPTHPPRP	0.225
RRIRWRPPRLPRPRPRPCFFPRP	0.0878
RRIRKRPPRLPRPRPRPWDTPRP	-0.00122
RRIRRRPPRLPRPRPRPYRHPRP	-0.265
RRIRRRPPRLPRPRPRPTGLPRP	0.0398
RRIRWRPPRLPRPRPRPCRQPRP	-0.134
RRIRTRPPRLPRPRPRPSNAPRP	-0.424
RRIRMRPPRLPRPRPRPCQWPRP	-0.152
RRIRTRPPRLPRPRPRPTNLPRP	-0.0724
RRIRSRPPRLPRPRPRPPDNPRP	-0.0697

Sequence	shrunken log2 fold change
RRIRERPPRLPRPRPRPGMWPRP	0.178
RRIRARPPRLPRPRPRPYFWPRP	-0.0609
RRIRTRPPRLPRPRPRPRIYPRP	-0.304
RRIRMRPPRLPRPRPRPWRWPRP	0.205
RRIRRRPPRLPRPRPRPVACPRP	0.41
RRIRERPPRLPRPRPRPPCWPRP	0.0636
RRIRCRPPRLPRPRPRPITSPRP	0.0215
RRIRIRPPRLPRPRPRPLVEPRP	-0.0936
RRIRYRPPRLPRPRPRPPGSPRP	0.0125
RRIRVRPPRLPRPRPRPRHDPRP	0.129
RRIRHRPPRLPRPRPRPMRPPRP	0.36
RRIRQRPPRLPRPRPRPAPMPRP	0.538
RRIRSRPPRLPRPRPRPVFQPRP	-0.302
RRIRNRPPRLPRPRPRPVVVPRP	-0.11
RRIRQRPPRLPRPRPRPAEDPRP	0.0312
RRIRWRPPRLPRPRPRPMKEPRP	-0.23
RRIRSRPPRLPRPRPRPKIMPRP	-0.246
RRIRPRPPRLPRPRPRPGCWPRP	0.621
RRIRMRPPRLPRPRPRPNCLPRP	-0.00154
RRIRKRPPRLPRPRPRPTCVPRP	0.241
RRIRYRPPRLPRPRPRPESAPRP	-0.146
RRIRYRPPRLPRPRPRPADKPRP	-0.419
RRIRRRPPRLPRPRPRPWVWPRP	0.00495
RRIRHRPPRLPRPRPRPWHYPRP	0.137
RRIRHRPPRLPRPRPRPFGAPRP	-0.0114

Sequence	shrunken log2 fold change
RRIRTRPPRLPRPRPRPGEGPRP	0.177
RRIRRRPPRLPRPRPRPIAQPRP	0.129
RRIRHRPPRLPRPRPRPGNIPRP	-0.227
RRIRIRPPRLPRPRPRPCTPPRP	-0.719
RRIRERPPRLPRPRPRPMLNPRP	-0.106
RRIRCRPPRLPRPRPRPCLMPRP	-0.421
RRIRKRPPRLPRPRPRPAMEPRP	0.0841
RRIRRRPPRLPRPRPRPNTDPRP	-0.106
RRIRMRPPRLPRPRPRPCKVPRP	-0.0465
RRIRGRPPRLPRPRPRPLYYPRP	-0.13
RRIRRRPPRLPRPRPRPTNLPRP	0.068
RRIRGRPPRLPRPRPRPDMCPRP	1.27
RRIRQRPPRLPRPRPRPTVGPRP	-0.161
RRIRYRPPRLPRPRPRPAIMPRP	-0.196
RRIRWRPPRLPRPRPRPTMNPRP	-0.225
RRIRVRPPRLPRPRPRPHDAPRP	-0.141
RRIRFRPPRLPRPRPRPDWDPRP	0.124
RRIRPRPPRLPRPRPRPQAIPRP	0.186
RRIRNRPPRLPRPRPRPGHWPRP	0.291
RRIRGRPPRLPRPRPRPELPPRP	1.33
RRIRQRPPRLPRPRPRPPDVPRP	0.124
RRIRARPPRLPRPRPRPCVLPRP	-0.0267
RRIRVRPPRLPRPRPRPWRSPRP	-0.0506
RRIRRRPPRLPRPRPRPLDHPRP	-0.357
RRIRLRPPRLPRPRPRPQVRPRP	0.0635

Sequence	shrunken log2 fold change
RRIRARPPRLPRPRPRPMENPRP	0.423
RRIRKRPPRLPRPRPRPHGLPRP	0.0425
RRIRWRPPRLPRPRPRPIDGPRP	0.19
RRIRFRPPRLPRPRPRPWWHPRP	-0.334
RRIRKRPPRLPRPRPRPVHYPRP	-0.0126
RRIRGRPPRLPRPRPRPMQRPRP	1.29
RRIRFRPPRLPRPRPRPVVEPRP	0.258
RRIRERPPRLPRPRPRPEDYPRP	0.00235
RRIRNRPPRLPRPRPRPDYQPRP	-0.165
RRIRVRPPRLPRPRPRPKLTPRP	-0.0989
RRIRGRPPRLPRPRPRPFHPPRP	-0.124
RRIRNRPPRLPRPRPRPCVEPRP	-0.209
RRIRIRPPRLPRPRPRPPIHPRP	-0.614
RRIRQRPPRLPRPRPRPPTGPRP	0.0124
RRIRERPPRLPRPRPRPHHMPRP	-0.381
RRIRKRPPRLPRPRPRPIWAPRP	-0.0352
RRIRYRPPRLPRPRPRPDQSPRP	-0.0117
RRIRIRPPRLPRPRPRPVFNPRP	-0.602
RRIRYRPPRLPRPRPRPPENPRP	-0.145
RRIRFRPPRLPRPRPRPRWAPRP	0.305
RRIRARPPRLPRPRPRPHDCPRP	-0.16
RRIRPRPPRLPRPRPRPNMQPRP	-0.313
RRIRMRPPRLPRPRPRPDMKPRP	0.182
RRIRMRPPRLPRPRPRPYVWPRP	-0.0956
RRIRTRPPRLPRPRPRPPPYPRP	-0.000222
